Laboratory results taken from patent US20150086555A1.

Legend:
Conditions in all cases: remark: other sources report otherwise
[1] = target: recombinant soluble homotrimeric HA of A/northern shoveler/California/HKWF115/07 (H6) (Influenza A virus A/northern shoveler/California/HKWF115/2007(H6N1)); test: HA microarray, BCC supernatant
[2] = target: recombinant soluble homotrimeric HA of A/Solomon Islands/3/06 (H1N1) (Influenza A virus A/Solomon Islands/3/2006(H1N1)); test: HA microarray, BCC supernatant
[3] = target: recombinant soluble homotrimeric HA of A/duck/Yangzhou/02/05 (H8N4) (Influenza A virus A/duck/Yangzhou/02/2005(H8N4)); test: HA microarray, BCC supernatant
[4] = target: recombinant soluble homotrimeric HA of A/swine/Ontario/01911-2/99 (H4N6) (Influenza A virus A/Swine/Ontario/01911-2/99 (H4N6)); test: HA microarray, BCC supernatant
[5] = target: recombinant soluble homotrimeric HA of A/Wisconsin/67/05 (H3N2) (Influenza A virus A/Wisconsin/67/2005(H3N2)); test: HA microarray, BCC supernatant
[6] = target: recombinant soluble homotrimeric HA of A/California/4/09 (H1N1) (Influenza A virus A/California/04/2009(H1N1)); test: HA microarray, BCC supernatant
[7] = target: recombinant soluble homotrimeric HA of A/Netherlands/219/03 (H7N7) (Influenza A virus A/Netherlands/219/03(H7N7)); test: HA microarray, BCC supernatant
[8] = target: recombinant soluble homotrimeric HA of A/Vietnam/1203/04 (H5N1) (Influenza A virus A/VietNam/1203/2004(H5N1)); test: HA microarray, BCC supernatant
[9] = target: recombinant soluble homotrimeric HA of A/chicken/Vietnam/NCVD-016/08 (H5N1) (Influenza A virus A/chicken/Vietnam/NCVD-016/2008(H5N1)); test: HA microarray, BCC supernatant
[10] = target: recombinant soluble homotrimeric HA of A/Indonesia/5/05 (H5N1) (Influenza A virus A/Indonesia/5/2005(H5N1)); test: HA microarray, BCC supernatant
[11] = target: recombinant soluble homotrimeric HA of A/Hong Kong/2108/03 (H9N2) (Influenza A virus A/HK/2108/2003(H9N2)); test: HA microarray, BCC supernatant
[12] = target: recombinant soluble homotrimeric HA of A/Anhui/1/05 (H5N1) (Influenza A virus A/Anhui/1/2005(H5N1)); test: HA microarray, BCC supernatant
[13] = target: recombinant soluble homotrimeric HA of A/Japan/305/57 (H2N2) (Influenza A virus A/Japan/305/1957(H2N2)); test: HA microarray, BCC supernatant
[14] = target: recombinant homotrimeric HA A/South Carolina/1/18 H1N1 (Influenza A virus A/South Carolina/1/18 (H1N1)); test: protein microarray, purified IgG, trimeric HA
[15] = target: recombinant homotrimeric HA A/Wisconsin/67/05 H3N2 (Influenza A virus A/Wisconsin/67/2005(H3N2)); test: protein microarray, purified IgG, trimeric HA
[16] = target: recombinant homotrimeric HA A/Japan/305/57 H2N2 (Influenza A virus A/Japan/305/1957(H2N2)); test: protein microarray, purified IgG, trimeric HA
[17] = target: recombinant homotrimeric HA A/California/4/09 H1N1 (Influenza A virus A/California/04/2009(H1N1)); test: protein microarray, purified IgG, trimeric HA
[18] = target: recombinant homotrimeric HA A/chicken/Vietnam/NCVD-016/08 H5N1 (Influenza A virus A/chicken/Vietnam/NCVD-016/2008(H5N1)); test: protein microarray, purified IgG, trimeric HA
[19] = target: recombinant homotrimeric HA A/Netherlands/219/03 H7N7 (Influenza A virus A/Netherlands/219/03(H7N7)); test: protein microarray, purified IgG, trimeric HA
[20] = target: recombinant homotrimeric HA A/Solomon Islands/3/06 H1N1 (Influenza A virus A/Solomon Islands/3/2006(H1N1)); test: protein microarray, purified IgG, trimeric HA
[21] = target: recombinant homotrimeric HA A/Vietnam/1203/04 H5N1 (Influenza A virus A/VietNam/1203/2004(H5N1)); test: protein microarray, purified IgG, trimeric HA
[22] = target: recombinant homotrimeric HA A/Hong Kong/2108/03 H9N2 (Influenza A virus A/HK/2108/2003(H9N2)); test: protein microarray, purified IgG, trimeric HA
[23] = target: recombinant homotrimeric HA A/Hong Kong/156/97 H5N1 (Influenza A virus A/Hong Kong/156/97 (H5N1)); test: protein microarray, purified IgG, trimeric HA
[24] = target: recombinant homotrimeric HA A/Indonesia/5/05 H5N1 (Influenza A virus A/Indonesia/5/2005(H5N1)); test: protein microarray, purified IgG, trimeric HA
[25] = target: recombinant homotrimeric HA A/Anhui/1/05 H5N1 (Influenza A virus A/Anhui/1/2005(H5N1)); test: protein microarray, purified IgG, trimeric HA
[26] = target: recombinant homotrimeric HA A/Hong Kong/1073/99 H9N2 (Influenza A virus A/Hong Kong/1073/99 (H9N2)); test: protein microarray, purified IgG, trimeric HA
[27] = target: recombinant homotrimeric HA A/northern shoveler/California/HKWF115/07 H6N4 (Influenza A virus A/northern shoveler/California/HKWF115/2007(H6N1)); test: protein microarray, purified IgG, trimeric HA
[28] = target: recombinant homotrimeric HA A/Egypt/3300-NAMRU3/08 H5N1 (Influenza A virus A/Egypt/3300-NAMRU3/2008(H5N1)); test: protein microarray, purified IgG, trimeric HA

B1: TCN-557 (5081_A04) (antibody, V domains shown)
VH: QVQLVQSGAEVKKPGASVKVSCKASGHTFTGYYIHWVRQAPGQGLEWMGWINPDSGATSSAQNFQGRVTMTGDTSSSTAYMELSRLSFDDTAVYYCARVLFTSPFDFWGEGTLVTVSS
VL: QAVVTQEPSLAVSPGGTVTLTCGSSTGAVTRGHYPYWFQQKPGQAPRALIYDSAGNRHSWTPARFSGSLLGGKAALTLSGAQPEDEAEYYCLLSYSGVWVFGGGTKLTVL
B1 gave a Trimeric HA Binding: RLU [1] of 24400 RLU, a Trimeric HA Binding: RLU [2] of 40700 RLU and a Trimeric HA Binding: RLU [3] of 50100 RLU. For the same binder, the Trimeric HA Binding: RLU [4] was 27000 RLU, the Trimeric HA Binding: RLU [5] was 10200 RLU and the Trimeric HA Binding: RLU [6] was 17600 RLU. The Trimeric HA Binding: RLU [7] was 6780 RLU, the Trimeric HA Binding: RLU [8] was 47300 RLU and the Trimeric HA Binding: RLU [9] was 45500 RLU. For the same binder, the Trimeric HA Binding: RLU [10] was 45200 RLU, the Trimeric HA Binding: RLU [11] was 35300 RLU and the Trimeric HA Binding: RLU [12] was 46000 RLU. It also gave a Trimeric HA Binding: RLU [13] of 43400 RLU, a Trimeric HA Binding: RLU [14] of 3590 RLU and a Trimeric HA Binding: RLU [15] of 327 RLU. It also gave a Trimeric HA Binding: RLU [16] of 28900 RLU, a Trimeric HA Binding: RLU [17] of 1170 RLU and a Trimeric HA Binding: RLU [18] of 25400 RLU. It also gave a Trimeric HA Binding: RLU [19] of 7250 RLU, a Trimeric HA Binding: RLU [20] of 22700 RLU and a Trimeric HA Binding: RLU [21] of 25400 RLU. It also gave a Trimeric HA Binding: RLU [22] of 7660 RLU, a Trimeric HA Binding: RLU [23] of 22800 RLU and a Trimeric HA Binding: RLU [24] of 23300 RLU. For the same binder, the Trimeric HA Binding: RLU [25] was 22000 RLU, the Trimeric HA Binding: RLU [26] was 440 RLU and the Trimeric HA Binding: RLU [27] was 12600 RLU. For the same binder, the Trimeric HA Binding: RLU [28] was 23600 RLU.
